For one substance, Kd results are on record in PMC10767740.

The subject of data set [1] is TDP-43 native oligomer (NA-O). Nature of the data set: SPR. The note with it: protein immobilized on CM5, SPR Biacore 8K, CM5 chip, protein amine-coupled (30 ug/mL in NaAc pH 4.0), TG12 7.8-8000 nM in 1x PBS + 0.02% Tween-20, 120 s association and dissociation, 1:1 ….
In data set [2] the test system is TDP-43 monomer (TDP-M). Nature of the data set: SPR. The note with it: protein immobilized on CM5; SPR Biacore 8K, CM5 chip, protein amine-coupled (30 ug/mL in NaAc pH 4.0); TG12 7.8-8000 nM in 1x PBS + 0.02% Tween-20; 120 s association and dissociation; 1:1 ….
TDP-43 monomer (TDP-M), sequence (chain, as listed by the source): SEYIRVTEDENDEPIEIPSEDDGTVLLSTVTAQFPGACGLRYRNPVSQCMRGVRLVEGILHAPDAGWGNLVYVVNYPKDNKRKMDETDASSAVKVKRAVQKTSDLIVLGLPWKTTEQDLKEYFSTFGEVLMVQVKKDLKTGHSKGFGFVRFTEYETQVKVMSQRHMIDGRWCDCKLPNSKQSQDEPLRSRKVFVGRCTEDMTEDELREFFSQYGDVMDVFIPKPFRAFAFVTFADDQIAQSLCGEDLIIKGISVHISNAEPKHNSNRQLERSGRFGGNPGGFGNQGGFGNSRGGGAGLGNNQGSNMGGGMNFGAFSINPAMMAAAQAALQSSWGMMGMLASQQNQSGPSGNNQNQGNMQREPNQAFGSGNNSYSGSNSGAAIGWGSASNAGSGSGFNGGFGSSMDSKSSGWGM

TG12: the Kd in data set [1] was found to be 125 nM; in data set [2], 155 nM.
